Assay results from patent US20200095338A1.

Biological target: IL-4R (interleukin-4 receptor) (UniProt P24394)
Assay: cell-based or functional assay

Sequence of UniProt P24394 (P24394 26-825 limits assumed): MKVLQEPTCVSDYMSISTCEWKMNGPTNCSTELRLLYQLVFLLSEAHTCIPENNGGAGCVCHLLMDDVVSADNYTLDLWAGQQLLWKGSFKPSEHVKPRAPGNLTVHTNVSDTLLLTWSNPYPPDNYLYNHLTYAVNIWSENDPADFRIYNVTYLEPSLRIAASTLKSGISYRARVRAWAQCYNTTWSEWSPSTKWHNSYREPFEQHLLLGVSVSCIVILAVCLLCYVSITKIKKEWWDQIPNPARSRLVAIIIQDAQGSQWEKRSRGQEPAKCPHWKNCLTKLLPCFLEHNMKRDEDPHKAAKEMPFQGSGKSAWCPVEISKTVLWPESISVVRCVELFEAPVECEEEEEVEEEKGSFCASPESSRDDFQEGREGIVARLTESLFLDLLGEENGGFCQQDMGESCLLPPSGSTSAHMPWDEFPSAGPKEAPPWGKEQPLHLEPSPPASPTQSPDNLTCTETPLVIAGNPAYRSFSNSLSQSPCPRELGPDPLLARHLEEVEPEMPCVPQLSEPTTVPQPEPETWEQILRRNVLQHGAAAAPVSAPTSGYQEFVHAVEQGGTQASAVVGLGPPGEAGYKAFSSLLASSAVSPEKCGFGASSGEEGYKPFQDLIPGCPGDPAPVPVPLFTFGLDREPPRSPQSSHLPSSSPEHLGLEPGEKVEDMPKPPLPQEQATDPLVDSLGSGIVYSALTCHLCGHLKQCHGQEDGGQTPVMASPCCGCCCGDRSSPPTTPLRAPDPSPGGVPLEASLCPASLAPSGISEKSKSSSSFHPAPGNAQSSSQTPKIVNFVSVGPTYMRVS

attenuation of IL-4R activity relative to the control constructs: > 10%
B1: anti-IL-4R:anti-CD63 conjugate (streptavidin-conjugated anti-IL-4R antibody combined 1:1 with biotinylated anti-CD63 antibody MEM-259) (bispecific antibody, part only; not given: anti-CD63 MEM-259 antibody, constant regions, V domains shown, part only)
VH: EVQLVESGGGVVQPGRSLRLSCVASGFTFSDYGMHWVRQAPGKGLEWVAVIWYDGSIKYFRDSVKGRFTISRDNSKNTLYLQMNSLRVEDTAHYYCAKESSSWYFYHGLDVWGQGTMVTVSS
VL: EIVMTQSPLSLPVSPGEPASISCRSNQSLLHSNGNNYLAWYLQKPGQSPHLLIYLGSNRASGVPDRFSGSGSGTDFTLKISRVEAGDVGTYFCMQSLQAPPFTFGPGTKVEIKR
modifications: antibody conjugated to streptavidin
